The source of these data is patent publication US11491212.

Data set [1] deals with CB 2679d (modified FIX R318Y/R338E/T343R, SEQ ID NO:394), mature single-chain zymogen form.
Data set [2] has as its system plasma purified human AT-III (antithrombin III). The experiment in a line: same assay; ratio of K0.5 to Catalyst Biosciences WT FIXa.

Sequence of CB 2679d (modified FIX R318Y/R338E/T343R, SEQ ID NO:394), mature single-chain zymogen form (chain, as listed by the source R318Y R338E T343R): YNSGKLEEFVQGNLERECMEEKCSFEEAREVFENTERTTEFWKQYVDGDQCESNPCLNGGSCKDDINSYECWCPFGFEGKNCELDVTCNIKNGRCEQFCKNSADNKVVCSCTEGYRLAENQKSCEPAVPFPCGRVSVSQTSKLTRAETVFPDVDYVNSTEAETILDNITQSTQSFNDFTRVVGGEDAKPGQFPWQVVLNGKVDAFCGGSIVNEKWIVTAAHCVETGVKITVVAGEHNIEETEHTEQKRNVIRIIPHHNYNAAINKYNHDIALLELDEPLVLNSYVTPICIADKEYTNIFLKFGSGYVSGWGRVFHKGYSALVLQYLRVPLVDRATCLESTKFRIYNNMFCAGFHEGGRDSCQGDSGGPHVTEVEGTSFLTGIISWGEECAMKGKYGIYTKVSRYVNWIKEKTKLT

As to “activated Factor XI (FXIa; Heamatologic Technologies, Inc.)”, the “activation rate and extent of activation by factor XIa/calcium” value in data set [1] was “The activation rate of the polypeptide of SEQ ID NO:394 (CB 2679d) by factor XIa/calcium and the extent of activation (approximately 100%) were equivalent to those of commercial lots of BeneFIX®”. As for FIXa A103N/N105S, the K0.5-mut/K0.5-wt in data set [2] is 1.1 fold. Same read-out and setting: to FIXa K106N/V108S belongs 1.6 fold. Still for that read-out and setting: under “BeneFIX Coagulation Factor IX (Recombinant), activated (FIXa)” stands 0.9 fold; under FIXa D85N, 1.1 fold. The same measure, in the same setting: under FIXa D104N/K106S stands 0.9 fold.
